Here are results for 1 protein from patent US20040143859A1 (SANKYO, published 2004).

This series concerns the molecule itself. As to the kind of experiment: SDS-PAGE, reducing (60 KD) against non-reducing (120 KD). As for the experimental part: The two protein peaks (6 and 7) with OCIF activity were subjected to SDS-polyacrylamide gel electrophoresis under reducing and non-reducing conditions. Briefly, 20 μl of each peak fraction was concentrated under vacuum and dissolved in 1.5 μl of 10 mM Tris-HCl, pH 8, 1 mM EDTA, 2.5% SDS, 0.01% bromophenol blue, and incubated at 37° C. overnight under non-reducing conditions or under reducing conditions (with 5% of 2-mercaptoethanol). Each 1.0 μl of sample was then analyzed by SDS-polyacrylamide gel electrophoresis with a gradient gel of 10-15% acrylamide (Pharmacia Co.) and an electrophoresis-device (Fast System, Pharmacia Co.). The following molecular weight marker proteins were used to calculate molecular weight:phosphorylase b (94 kD), bovine serum albumin (67 kD), ovalbumin (43 kD), carbonic anhydrase (30 kD), trypsin inhibitor (20.0 kD), and lactalbumin (14.4 kD). After electrophoresis, protein bands were visualized by silver stain using Phast Silver Stain Kit.

B1: osteoclastogenesis inhibitory factor (OCIF), natural, purified from conditioned medium of human fibroblast IMR-90 (other)
chain: ETFPPKYLHYDEETSHQLLCDKCPPGTYLKQHCTAKWKTVCAPCPDHYYTDSWHTSDECLYCSPVCKELQYVKQECNRTHNRVCECKEGRYLEIEFCLKHRSCPPGFGVVQAGTPERNTVCKRCPDGFFSNETSSKAPCRKHTNCSVFGLLLTQKGNATHDNICSGNSESTQKCGIDVTLCEEAFFRFAVPTKFTPNWLSVLVDNLPGTKVNAESVERIKRQHSSQEQTFQLLKLWKHQNKDQDIVKKIIQDIDLCENSVQRHIGHANLTFEQLRSLMESLPGKKVGAEDIEKTIKACKPSDQILKLLSLWRIKNGDQDTLKGLMHALKHSKTYHFPKTVTQSLKKTIRFLHSFTMYKLYQKLFLEMIGNQVQSVKISCL
modifications: N-terminus blocked (the filing says the N-terminal residue may be converted to pyroglutamine); N-linked sugar chains
notes: Secreted glycoprotein found as a 60 kD monomer and a 120 kD homodimer; also called nOCIF; natural OCIF
For the protein B1, the binding result is “binds”.
